Assay results published in US20220168396A1, “MULTI-RECEPTOR AGONIST AND MEDICAL USE THEREOF” (published 2022).
Square brackets hold non-standard residues; d marks the D form. Ends that are not written are not given here. Aib = CC(C)(N)C(=O)O

T1: human glucose-dependent insulinotropic peptide receptor (human, UniProt P48546)
T1 sequence: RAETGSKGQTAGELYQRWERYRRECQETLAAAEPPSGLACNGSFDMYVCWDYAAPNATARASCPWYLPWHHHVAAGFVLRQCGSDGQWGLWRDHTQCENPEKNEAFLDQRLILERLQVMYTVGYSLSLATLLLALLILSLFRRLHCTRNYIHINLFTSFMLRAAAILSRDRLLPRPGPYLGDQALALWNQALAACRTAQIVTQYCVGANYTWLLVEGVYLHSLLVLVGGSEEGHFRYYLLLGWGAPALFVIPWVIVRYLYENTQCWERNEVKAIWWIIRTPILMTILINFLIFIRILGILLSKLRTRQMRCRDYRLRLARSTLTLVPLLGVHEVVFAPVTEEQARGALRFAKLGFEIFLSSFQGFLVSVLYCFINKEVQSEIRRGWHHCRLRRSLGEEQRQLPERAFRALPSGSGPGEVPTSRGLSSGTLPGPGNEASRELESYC

B1: Compound No. 3 (peptide)
peptide: Y[Aib]EGTFTSDVSSYLEEEHQKEFIAWLVRGGPSSGAPPPSK-NH2
modifications: N-terminus assumed
SMILES: CC[C@H](C)[C@H](NC(=O)[C@H](Cc1ccccc1)NC(=O)[C@H](CCC(=O)O)NC(=O)[C@H](CCCCN)NC(=O)[C@H](CCC(N)=O)NC(=O)[C@H](Cc1c[nH]cn1)NC(=O)[C@H](CCC(=O)O)NC(=O)[C@H](CCC(=O)O)NC(=O)[C@H](CCC(=O)O)NC(=O)[C@H](CC(C)C)NC(=O)[C@H](Cc1ccc(O)cc1)NC(=O)[C@H](CO)NC(=O)[C@H](CO)NC(=O)[C@@H](NC(=O)[C@H](CC(=O)O)NC(=O)[C@H](CO)NC(=O)[C@@H](NC(=O)[C@H](Cc1ccccc1)NC(=O)[C@@H](NC(=O)CNC(=O)[C@H](CCC(=O)O)NC(=O)C(C)(C)NC(=O)[C@@H](N)Cc1ccc(O)cc1)[C@@H](C)O)[C@@H](C)O)C(C)C)C(=O)N[C@@H](C)C(=O)N[C@@H](Cc1c[nH]c2ccccc12)C(=O)N[C@@H](CC(C)C)C(=O)N[C@H](C(=O)N[C@@H](CCCNC(=N)N)C(=O)NCC(=O)NCC(=O)N1CCC[C@H]1C(=O)N[C@@H](CO)C(=O)N[C@@H](CO)C(=O)NCC(=O)N[C@@H](C)C(=O)N1CCC[C@H]1C(=O)N1CCC[C@H]1C(=O)N1CCC[C@H]1C(=O)N[C@@H](CO)C(=O)N[C@@H](CCCCN)C(N)=O)C(C)C
B2: Compound No. 73 (peptide)
peptide: Y[Aib]EGTFTSDYSIYLEEEAAQEFVNWLLAGGPSSGAPPPS-NH2
modifications: N-terminus assumed
SMILES: CC[C@H](C)[C@H](NC(=O)[C@H](CO)NC(=O)[C@H](Cc1ccc(O)cc1)NC(=O)[C@H](CC(=O)O)NC(=O)[C@H](CO)NC(=O)[C@@H](NC(=O)[C@H](Cc1ccccc1)NC(=O)[C@@H](NC(=O)CNC(=O)[C@H](CCC(=O)O)NC(=O)C(C)(C)NC(=O)[C@@H](N)Cc1ccc(O)cc1)[C@@H](C)O)[C@@H](C)O)C(=O)N[C@@H](Cc1ccc(O)cc1)C(=O)N[C@@H](CC(C)C)C(=O)N[C@@H](CCC(=O)O)C(=O)N[C@@H](CCC(=O)O)C(=O)N[C@@H](CCC(=O)O)C(=O)N[C@@H](C)C(=O)N[C@@H](C)C(=O)N[C@@H](CCC(N)=O)C(=O)N[C@@H](CCC(=O)O)C(=O)N[C@@H](Cc1ccccc1)C(=O)N[C@H](C(=O)N[C@@H](CC(N)=O)C(=O)N[C@@H](Cc1c[nH]c2ccccc12)C(=O)N[C@@H](CC(C)C)C(=O)N[C@@H](CC(C)C)C(=O)N[C@@H](C)C(=O)NCC(=O)NCC(=O)N1CCC[C@H]1C(=O)N[C@@H](CO)C(=O)N[C@@H](CO)C(=O)NCC(=O)N[C@@H](C)C(=O)N1CCC[C@H]1C(=O)N1CCC[C@H]1C(=O)N1CCC[C@H]1C(=O)N[C@@H](CO)C(N)=O)C(C)C
B3: Compound No. 79 (peptide)
peptide: Y[Aib]EGTFTSDYSIYLEKIAAQEFVQWLIAGGPSSGAPPPS-NH2
modifications: N-terminus assumed
SMILES: CC[C@H](C)[C@H](NC(=O)[C@H](CCCCN)NC(=O)[C@H](CCC(=O)O)NC(=O)[C@H](CC(C)C)NC(=O)[C@H](Cc1ccc(O)cc1)NC(=O)[C@@H](NC(=O)[C@H](CO)NC(=O)[C@H](Cc1ccc(O)cc1)NC(=O)[C@H](CC(=O)O)NC(=O)[C@H](CO)NC(=O)[C@@H](NC(=O)[C@H](Cc1ccccc1)NC(=O)[C@@H](NC(=O)CNC(=O)[C@H](CCC(=O)O)NC(=O)C(C)(C)NC(=O)[C@@H](N)Cc1ccc(O)cc1)[C@@H](C)O)[C@@H](C)O)[C@@H](C)CC)C(=O)N[C@@H](C)C(=O)N[C@@H](C)C(=O)N[C@@H](CCC(N)=O)C(=O)N[C@@H](CCC(=O)O)C(=O)N[C@@H](Cc1ccccc1)C(=O)N[C@H](C(=O)N[C@@H](CCC(N)=O)C(=O)N[C@@H](Cc1c[nH]c2ccccc12)C(=O)N[C@@H](CC(C)C)C(=O)N[C@H](C(=O)N[C@@H](C)C(=O)NCC(=O)NCC(=O)N1CCC[C@H]1C(=O)N[C@@H](CO)C(=O)N[C@@H](CO)C(=O)NCC(=O)N[C@@H](C)C(=O)N1CCC[C@H]1C(=O)N1CCC[C@H]1C(=O)N1CCC[C@H]1C(=O)N[C@@H](CO)C(N)=O)[C@@H](C)CC)C(C)C
B4: Compound No. 7 (peptide)
peptide: Y[Aib]EGTFTSDVSIYLEKEAAKEFVNWLLAGGPSSGAPPPSK-NH2
modifications: N-terminus assumed
SMILES: CC[C@H](C)[C@H](NC(=O)[C@H](CO)NC(=O)[C@@H](NC(=O)[C@H](CC(=O)O)NC(=O)[C@H](CO)NC(=O)[C@@H](NC(=O)[C@H](Cc1ccccc1)NC(=O)[C@@H](NC(=O)CNC(=O)[C@H](CCC(=O)O)NC(=O)C(C)(C)NC(=O)[C@@H](N)Cc1ccc(O)cc1)[C@@H](C)O)[C@@H](C)O)C(C)C)C(=O)N[C@@H](Cc1ccc(O)cc1)C(=O)N[C@@H](CC(C)C)C(=O)N[C@@H](CCC(=O)O)C(=O)N[C@@H](CCCCN)C(=O)N[C@@H](CCC(=O)O)C(=O)N[C@@H](C)C(=O)N[C@@H](C)C(=O)N[C@@H](CCCCN)C(=O)N[C@@H](CCC(=O)O)C(=O)N[C@@H](Cc1ccccc1)C(=O)N[C@H](C(=O)N[C@@H](CC(N)=O)C(=O)N[C@@H](Cc1c[nH]c2ccccc12)C(=O)N[C@@H](CC(C)C)C(=O)N[C@@H](CC(C)C)C(=O)N[C@@H](C)C(=O)NCC(=O)NCC(=O)N1CCC[C@H]1C(=O)N[C@@H](CO)C(=O)N[C@@H](CO)C(=O)NCC(=O)N[C@@H](C)C(=O)N1CCC[C@H]1C(=O)N1CCC[C@H]1C(=O)N1CCC[C@H]1C(=O)N[C@@H](CO)C(=O)N[C@@H](CCCCN)C(N)=O)C(C)C
B5: Compound No. 21 (peptide)
peptide: Y[Aib]EGTFTSDYSIYLDKIAAQEFVQWLLAGGPSSGAPPPSK-NH2
modifications: N-terminus assumed
SMILES: CC[C@H](C)[C@H](NC(=O)[C@H](CCCCN)NC(=O)[C@H](CC(=O)O)NC(=O)[C@H](CC(C)C)NC(=O)[C@H](Cc1ccc(O)cc1)NC(=O)[C@@H](NC(=O)[C@H](CO)NC(=O)[C@H](Cc1ccc(O)cc1)NC(=O)[C@H](CC(=O)O)NC(=O)[C@H](CO)NC(=O)[C@@H](NC(=O)[C@H](Cc1ccccc1)NC(=O)[C@@H](NC(=O)CNC(=O)[C@H](CCC(=O)O)NC(=O)C(C)(C)NC(=O)[C@@H](N)Cc1ccc(O)cc1)[C@@H](C)O)[C@@H](C)O)[C@@H](C)CC)C(=O)N[C@@H](C)C(=O)N[C@@H](C)C(=O)N[C@@H](CCC(N)=O)C(=O)N[C@@H](CCC(=O)O)C(=O)N[C@@H](Cc1ccccc1)C(=O)N[C@H](C(=O)N[C@@H](CCC(N)=O)C(=O)N[C@@H](Cc1c[nH]c2ccccc12)C(=O)N[C@@H](CC(C)C)C(=O)N[C@@H](CC(C)C)C(=O)N[C@@H](C)C(=O)NCC(=O)NCC(=O)N1CCC[C@H]1C(=O)N[C@@H](CO)C(=O)N[C@@H](CO)C(=O)NCC(=O)N[C@@H](C)C(=O)N1CCC[C@H]1C(=O)N1CCC[C@H]1C(=O)N1CCC[C@H]1C(=O)N[C@@H](CO)C(=O)N[C@@H](CCCCN)C(N)=O)C(C)C
B6: Compound No. 67 (peptide)
peptide: Y[Aib]EGTFTSDYSIYLEKEAAKEFIAWLLAGGPSSGAPPPS-NH2
modifications: N-terminus assumed
SMILES: CC[C@H](C)[C@H](NC(=O)[C@H](Cc1ccccc1)NC(=O)[C@H](CCC(=O)O)NC(=O)[C@H](CCCCN)NC(=O)[C@H](C)NC(=O)[C@H](C)NC(=O)[C@H](CCC(=O)O)NC(=O)[C@H](CCCCN)NC(=O)[C@H](CCC(=O)O)NC(=O)[C@H](CC(C)C)NC(=O)[C@H](Cc1ccc(O)cc1)NC(=O)[C@@H](NC(=O)[C@H](CO)NC(=O)[C@H](Cc1ccc(O)cc1)NC(=O)[C@H](CC(=O)O)NC(=O)[C@H](CO)NC(=O)[C@@H](NC(=O)[C@H](Cc1ccccc1)NC(=O)[C@@H](NC(=O)CNC(=O)[C@H](CCC(=O)O)NC(=O)C(C)(C)NC(=O)[C@@H](N)Cc1ccc(O)cc1)[C@@H](C)O)[C@@H](C)O)[C@@H](C)CC)C(=O)N[C@@H](C)C(=O)N[C@@H](Cc1c[nH]c2ccccc12)C(=O)N[C@@H](CC(C)C)C(=O)N[C@@H](CC(C)C)C(=O)N[C@@H](C)C(=O)NCC(=O)NCC(=O)N1CCC[C@H]1C(=O)N[C@@H](CO)C(=O)N[C@@H](CO)C(=O)NCC(=O)N[C@@H](C)C(=O)N1CCC[C@H]1C(=O)N1CCC[C@H]1C(=O)N1CCC[C@H]1C(=O)N[C@@H](CO)C(N)=O
B7: Compound No. 68 (peptide)
peptide: Y[Aib]EGTFTSDVSIYLEKIAAQEFVNWLLAGGPSSGAPPPS-NH2
modifications: N-terminus assumed
SMILES: CC[C@H](C)[C@H](NC(=O)[C@H](CCCCN)NC(=O)[C@H](CCC(=O)O)NC(=O)[C@H](CC(C)C)NC(=O)[C@H](Cc1ccc(O)cc1)NC(=O)[C@@H](NC(=O)[C@H](CO)NC(=O)[C@@H](NC(=O)[C@H](CC(=O)O)NC(=O)[C@H](CO)NC(=O)[C@@H](NC(=O)[C@H](Cc1ccccc1)NC(=O)[C@@H](NC(=O)CNC(=O)[C@H](CCC(=O)O)NC(=O)C(C)(C)NC(=O)[C@@H](N)Cc1ccc(O)cc1)[C@@H](C)O)[C@@H](C)O)C(C)C)[C@@H](C)CC)C(=O)N[C@@H](C)C(=O)N[C@@H](C)C(=O)N[C@@H](CCC(N)=O)C(=O)N[C@@H](CCC(=O)O)C(=O)N[C@@H](Cc1ccccc1)C(=O)N[C@H](C(=O)N[C@@H](CC(N)=O)C(=O)N[C@@H](Cc1c[nH]c2ccccc12)C(=O)N[C@@H](CC(C)C)C(=O)N[C@@H](CC(C)C)C(=O)N[C@@H](C)C(=O)NCC(=O)NCC(=O)N1CCC[C@H]1C(=O)N[C@@H](CO)C(=O)N[C@@H](CO)C(=O)NCC(=O)N[C@@H](C)C(=O)N1CCC[C@H]1C(=O)N1CCC[C@H]1C(=O)N1CCC[C@H]1C(=O)N[C@@H](CO)C(N)=O)C(C)C

These binders were tested against human glucagon-like peptide-1 receptor (human, UniProt P43220) (assay: cell-based or functional assay).
For B1, the “Activity for human GLP-1R (EC50 nM), cAMP HTRF” value (shortened to “Activity for human GLP-1R”) was 0.578 nM. With B2 the “Activity for human GLP-1R” value was 0.069 nM. B3 was tested, and the “Activity for human GLP-1R” value was 0.012 nM. With B4 the “Activity for human GLP-1R” value was 0.016 nM. For B5, the “Activity for human GLP-1R” value was 0.043 nM.

These binders were tested against T1, human glucose-dependent insulinotropic … (assay: cell-based or functional assay).
In the case of B6, the “Activity for human GIPR (EC50 nM), cAMP HTRF” value (“Activity for human GIPR” for short) is reported as 0.017 nM. In the case of B1, the “Activity for human GIPR” value is reported as 0.91 nM. With B7 the “Activity for human GIPR” value was 0.047 nM.
